Measurements published in patent publication US20180119166.

Target: T1, MBP fusion protein of the carboxyl-terminal domain of Gle1 (MBP-Gle1C; amino acid residues 244-611)
T1 chain: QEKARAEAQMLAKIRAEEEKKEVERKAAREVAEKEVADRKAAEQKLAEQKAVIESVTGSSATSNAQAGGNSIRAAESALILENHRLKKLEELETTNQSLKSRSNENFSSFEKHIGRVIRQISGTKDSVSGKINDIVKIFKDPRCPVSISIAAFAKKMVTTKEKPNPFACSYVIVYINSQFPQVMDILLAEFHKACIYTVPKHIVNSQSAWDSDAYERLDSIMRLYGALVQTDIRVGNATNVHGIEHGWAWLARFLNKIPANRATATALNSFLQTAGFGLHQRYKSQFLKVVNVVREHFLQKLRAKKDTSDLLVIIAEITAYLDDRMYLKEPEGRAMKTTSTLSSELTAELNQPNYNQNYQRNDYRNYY

B1: 6x-histidine-fused LOS4 (LOS4-His) (protein)
chain: MADTVEKVPTVVESSSSSTVEASNSAEKTEPTTEKKKWGDVEDDDDEEEAVSELNSLSIKEEEKPDSILEEPEDSNIKAVTSGDTPYTSASRFEDLNLSPELMKGLYVEMKFEKPSKIQAISLPMIMTPPHKHLIAQAHNGSGKTTCFVLGMLSRVDPTLREPQALCICPTRELANQNMEVLQKMGKFTGITAELAVPDSTRGAPAATRGAPVSAHVVIGTPGTLKKWMAFKRLGLNHLKILVFDEADHMLATDGFRDDSLKIMKDIGRVNPNFQVLLFSATFNETVKDFVARTVKDPNQLFVKREDLALDSVKQYKVVCPKEQNKIEVIKDQIMELGDIGQTIIFVKTKASAQKVHKALAEMGYDVTSVHGNLTESDRDKIVKEFKECLTQVLIATDVIARGFDQQRVNLVVNYNLPTKYETGEPDYEVYLHRVGRAGRFGRKGAVFNLLLDDGWDKEVMEKIEKYFEANVKEIKSWNSEEEYKSALKEAGLLDEHHHHHH
Q: Which “apparent kcat of LOS4-His with MBP-Gle1C (2 µM MBP-Gle1C, 1 µM LOS4-His)” value does the source give for B1 here?
A: the apparent kcat values for LOS4-His alone and LOS4-His with MBP-Gle1C were calculated to be 0.267 and 0.565 sec^-1, respectively

Q: And the “fold increase in the overall catalytic rate of LOS4 (kcat against LOS4-His alone, 0.267 sec^-1)” value?
A: an approximately two-fold increase in the overall catalytic rate of LOS4 by Gle1
